The source of these data is patent US20220381787A1, “NOVEL LOX-1 ANTIBODY COMPOSITIONS, LOX1 NEUTRALIZATION ASSAY AND METHODS OF TREATMENT USING SAME” (The Wistar Institute of Anatomy and Biology, priority 2019, published 2022).

For experiment [1], the target named is T1, recombinant human LOX-1 protein (Homo sapiens, UniProt P78380).
T1 construct: The hLOX1 immunogen was cloned into pET30a Escherichia coli expression vector and produced; His tag; made in house; host or cells: Escherichia coli (pET30a)
In words: IgG avidity test, modified ELISA with 4M urea washes. The class given is binding. The settings on record: for strength of binding to hLOX-1 recombinant protein: 4M urea washes, rank order 6A10=12D9>12E4>4D6; for avidity: 4M urea ELISA. The method, then:
Anti-hLOX-1 mAbs samples were tested for anti-hLOX-1-specific binding to recombinant antigen using a modified ELISA and avidity determined by 4M urea washes against recombinant human LOX-1 protein.
Anti-LOX-1 mAbs samples were tested for anti-LOX-1-specific binding to recombinant antigen using a modified ELISA and avidity determined by 4M urea washes against recombinant human LOX-1 protein. […] Overall out of 16 clones identified, 6 were stronger binders, and 4 were high binders in rank order of strength of binding 6A 10=12D9>12E4>4D6.
Microtiter plates previously coated with recombinant Lox-1 antigens were washed 3 times with PBS plus 0.05% tween 20 (PBST). Hybridomas 1B6, 2A10, 3D8, 3E6, 4D6, 5C2, 5F5, 6A10, 8E7, 9E12, 10H11, 11A6, 12D9, 11C5, 12A10, 12E4, 14A12, and 12G6 samples were diluted as indicated and added (100 μl/well). The avidity of antibodies against hLOX-1 protein was determined by a particle disruption ELISA using 4M Urea. The binding of hLOX1 protein and incubation with mAbs were performed followed by a 5-minute incubation with urea after washing five times with 0.05% PBST. Control (urea-untreated) wells were treated with PBS during the 5-minute incubation. The anti-human IgG conjugated with horseradish peroxidase (HRP) was added with the dilution of 1/5000 in PBS for 1 hour. Afterwards, the plate is washed 5 times, and 100 μl of 3,3′5,5′-Tetramethylbenzidine (TMB) Substrate (Sigma-Aldrich, USA) is added to each well for 10 minutes before the reaction being stopped with 2M H2SO4 solution. The plate is read at 450 nm by Biotek ELISA plate reader.
(In general: ELISA stands for enzyme-linked immunosorbent assay.)

Experiment [2] has as its target T2, recombinant full length hLOX1 protein (Homo sapiens, UniProt P78380).
T2 construct: The hLOX1 immunogen was cloned into pET30a Escherichia coli expression vector and produced; His tag; made in house; host or cells: Escherichia coli (pET30a)
In words: Western blot against native and denatured full-length recombinant hLOX1. The class given is binding. Conditions: for binding to denatured LOX-1: denatured condition; for binding to native LOX-1: native condition. From the text:
FIGS. 5A and 5B provide a series of gels showing the binding and specificity of anti-LOX-1 mAbs to target protein analyzed by Western blot analysis. In each figure, the first row of gels was loaded with denatured LOX-1, while the second row of gels was loaded with native LOX-1, as indicated in Example. The clone numbers of the anti-LOX-1 antibodies are listed below the gels.
Immunological reactivity of hLox-1 antibodies was characterized by Western blot analysis against native and denatured full-length recombinant proteins. Protein samples were electrophoretically separated under native or denaturing conditions on SDS-PAGE, performed using Novex gels with reagents as followed: 4-10% mini-gel, 10× Native-PAGE running buffer and 2× Native-PAGE: sample buffer. Denatured protein was heated in a heat block for 10 minutes at 57° C. Two micrograms (2 μg) of recombinant full length hLOX1 protein or non-specific POWV-Env viral protein was loaded to each well along with a protein size marker as a ladder. Gels were run at 150 V for 1 hour in a running buffer. Protein was transferred to a nitrocellulose membrane using the iBlot 2 Gel Transfer Device (Life Technologies). Membranes were blocked in Odyssey blocking buffer (Licor) for 1 hour at room temperature. Indicated hybridomas were diluted 1:250 in 0.5× Odyssey blocking buffer with 0.1% Tween-20 (BioRad) and incubated with the membranes overnight at 4° C. Membranes were washed and then incubated with the appropriate secondary antibody (goat anti-mouse IRDye680RD) for hybridoma samples for 1 hour at room temperature. After washing with PBST 5 times, membranes were imaged on the Odyssey infrared imager.
Background: Immunoblotting shows a protein as a band on a membrane.

The target of experiment [3] is T3, LOX-1 antigen present on the cell surface of 293T cells (Homo sapiens, UniProt P78380).
T3 construct: expressed in transfected cells; host or cells: 293T cells
Nature of the experiment: flow cytometry on hLOX-1 plasmid transfected 293T cells. Conditions: 1 μg/ml antibody. It is filed as cell-based. Here is the method: (§1) FIG. 8A is a flow cytometric histogram showing fluorescent intensity of cells incubated with recombinantly expressed anti-LOX-1 (IgG1) on the plasmid hLOX-1 transfected cells. Anti-hLOX-1/DNA transfected cells were stained with 1 μg/ml of anti-Lox1 (IgG1) (6A10) antibody plus FITC-labelled goat anti-human IgG secondary antibody. […] FIG. 8B show flow cytometry analysis of PBMCs from whole blood. Flow cytometry analysis of anti-hLOX-1 binding to CD11c^+, CD14^+, CD19^+ and CD3^+ cells in PBMCs from healthy donors. Flow cytometric analyses of anti-CD3, CD4, CD14, CD19 and anti-Lox1 monoclonal antibodies were used to detect their lineage specificity.
Background: In flow cytometry, cells or beads pass a laser one at a time.

Experiment [4] relates to CD11c+, CD14+, CD19+ and CD3+ cells in PBMCs. Nature of the experiment: flow cytometry of PBMCs from healthy donors. The class given is cell-based, human. Here is the method: as §1

B1: 12E4: mouse monoclonal anti-human LOX-1 antibody, VH SEQ ID NO: 15, VL SEQ ID NO: 17 (antibody, V domains shown)
VH: MGWSWIFLFLLSGTAGVHSEVQLQQSGPELVKPGASMKISCKASGYSFTGYTMNWVKQSHGKNLEWIGLINPYNGGTSYNQKFKGKATLTVDKSSSTAYMELLSLTSEDSAVYYCARGGFYAMDYWGQGTSVTVSS
VL: MSSAQFLGLLLLCFQGTRCDIQMTQTTSSLSASLGDRVTISCSASQGISNYLNWYQQKPDGTVKLLIYYTSSLHSGVPSRFSGSGSGTDYSLTISNLEPEDIATYYCQQYSKLPYTFGGGTKLEIK
modifications: Amino acid sequence of variable region of the 12E4 heavy chain.; (1)..(19) signal; (20)..(49) FR1; (50)..(54) CDR1; (55)..(68) FR2; (69)..(85) CDR2; (86)..(117) FR3; (118)..(125) CDR3; (126)..(136) FR4; Amino acid sequence of variable region of the 12E4 light chain.; (20)..(42) FR1; (43)..(53) CDR1; (54)..(68) FR2; (69)..(75) CDR2; (76)..(107) FR3; (108)..(116) CDR3; (117)..(126) FR4
In the case of B1, the “strength of binding to hLOX-1 recombinant protein” value (from here on “strength of binding”) in experiment [1] is on record as “high binders”. Further, in experiment [2], the “binding to denatured LOX-1” value was “not denatured LOX-1 (or binding to denatured LOX-1 at a significantly lower level)” and the “binding to native LOX-1” value was “demonstrate binding to native LOX-1”.

B2: 12D9: mouse monoclonal anti-human LOX-1 antibody, VH SEQ ID NO: 11, VL SEQ ID NO: 13 (antibody, V domains shown)
VH: MAWVWTLLFLMAAAQSAQAQIQLVQSGPELKKPGETVKISCKASGYTFTNYGMNWVKQTPGKGLKWMGWINTYTGEPTYTDDFKGRFAFSLETSASTASLQIINLKNEDTATYFCARGGDFYAMDYWGQGTSVTVSS
VL: MESQTLVFISILLWLYGADGNIVMTQSPKSMSMSVGERVTLSCKASENVGTYVSWYQQKPEQSPKLVIFGASNRNTGVPDRFTGSGFATDFTLTISSVQAEDLGDYHCGQSSNYPYTFGGGTKLEIK
modifications: Amino acid sequence of variable region of the 12D9 heavy chain.; (1)..(19) signal; (20)..(49) FR1; (50)..(54) CDR1; (55)..(68) FR2; (86)..(117) FR3; (118)..(126) CDR3; (127)..(137) FR4; Amino acid sequence of variable region of the 12D9 light chain.; (1)..(20) signal; (21)..(43) FR1; (44)..(54) CDR1; (55)..(69) FR2; (70)..(76) CDR2; (77)..(108) FR3; (109)..(117) CDR3; (118)..(127) FR4
Regarding B2, in experiment [1], the avidity entry is “strong avidity” and the “strength of binding” value is on record as “high binders”. Moreover, in experiment [2], the “binding to denatured LOX-1” value is given as “not denatured LOX-1 (or binding to denatured LOX-1 at a significantly lower level)” and the “binding to native LOX-1” value was “demonstrate binding to native LOX-1”.

B3: 3D8: mouse monoclonal anti-human LOX-1 antibody, VH SEQ ID NO: 25, VL SEQ ID NO: 27 (antibody, V domains shown)
VH: MEWSWIFLFLLSGTAGVHSEVQLQQSGPELVKPGASVKMSCKASGYTFTSYVMHWVKQKPGQGLEWIGYINPYNDGTKYNEKFKGKATLTSDKSSSTAYMELSSLTSEDSAVYYCARGVYDGYPDYWGQGTTLTVSS
VL: MVSTSQLLGLLLFWTSASRCDIVMTQSPATLSVTPGDRVSLSCRASQSISDYLHWYQQKSHESPRLLIKYASQSISGIPSRFSGSGSGSDFTLSINSVEPEDVGVYYCQNGHSFPYTFGGGTKLEIK
modifications: Amino acid sequence of variable region of the 3D8 heavy chain.; (1)..(19) Signal; (20)..(49) FR1; (50)..(54) C DR1; (55)..(68) FR2; (69)..(85) CDR2; (86)..(117) FR3; (118)..(126) CDR3; (127)..(137) FR4; Amino acid sequence of variable region of the 3D8 light chain.; (1)..(20) signal; (21)..(43) FR1; (44)..(54) CDR1; (55)..(69) FR2; (70)..(76) CDR2; (77)..(108) FR3; (109)..(117) CDR3; (118)..(127) FR4
As to B3, in experiment [2], the “binding to denatured LOX-1” value is reported as “not denatured LOX-1 (or binding to denatured LOX-1 at a significantly lower level)” and the “binding to native LOX-1” value is on record as “demonstrate binding to native LOX-1”.

B4: anti-Lox1 (IgG1) (6A10): recombinant antibody, clone 6A10 sequence in IgG1 framework, expressed in Expi293F cells (antibody, V domains shown)
VH: EVQLQQSGPELVKPGASVKISCKASGYSFTGYYMHWVKQSHVKSLEWIGRINPYNGATSYNQNFKDKASLTVDKSSSTAYMELHSLTSEDSAVYYCAPDVAYWGQGTLVTVSA
VL: DIKMTQSPSSMYASLGERVTITCKASQDINSYLSWFQQKPGKSPKTLIYRANRLVDGVPSRFSGSGSGQDYSLTISSLEYEDMGIYYCLQYDEFPPWTFGGGTKLEIK
B4: the “binding to non-transfected cells” value in experiment [3] is recorded as “no binding above background to non-transfected cells”. In experiment [3] (FITC-labelled goat anti-human IgG secondary), the “binding to hLOX-1 transfected cells” value is given as “Specific binding to cells transfected with LOX-1 antigen”. Also, the “binding to CD3+ cells in PBMCs” value in experiment [4] is “not to CD3^+ cells”. Further, the “binding to immune subset cells in PBMCs” value in experiment [4] (CD11c+, CD14+, CD19+ cells) is reported as “binds to immune subset cells”.

B5: 6A10: mouse monoclonal anti-human LOX-1 antibody, VH SEQ ID NO: 3, VL SEQ ID NO: 5 (antibody, V domains shown)
VH: MGWSWIFLFLLSGTAGVLSEVQLQQSGPELVKPGASVKISCKASGYSFTGYYMHWVKQSHVKSLEWIGRINPYNGATSYNQNFKDKASLTVDKSSSTAYMELHSLTSEDSAVYYCAPDVAYWGQGTLVTVSA
VL: MRTPAQFLGILLLWFPGIKCDIKMTQSPSSMYASLGERVTITCKASQDINSYLSWFQQKPGKSPKTLIYRANRLVDGVPSRFSGSGSGQDYSLTISSLEYEDMGIYYCLQYDEFPPWTFGGGTKLEIK
modifications: Amino acid sequence of variable region of the 6A10 heavy chain.; SIGNAL (1)..(19) signal seqeunce; (20)..(49) FR1; (50)..(54) CDR1; (55)..(68) FR2; (69)..(85) CDR2; (86)..(117) FR3; (118)..(121) CDR3; (122)..(132) FR4; Amino acid sequence of variable region of the 6A10 light chain.; SIGNAL (1)..(20) signal seqeunce; (21)..(43) FR1; (44)..(54) CDR1; (55)..(69) FR2; (70)..(76) CDR2; (77)..(108) FR3; (109)..(118) CDR3; (119)..(128) FR4
B5: in experiment [1], the avidity result is on record as “strong avidity” and the “strength of binding” value was “high binders”. In experiment [2], the “binding to denatured LOX-1” value is recorded as “not denatured LOX-1 (or binding to denatured LOX-1 at a significantly lower level)” and the “binding to native LOX-1” value was “demonstrate binding to native LOX-1”.
